Here are results for one substance from patent US20060073508.

The test system of this data set is hemagglutinin epitope-tagged Del301-303 human alpha-2B adrenergic receptor.

On to GRK2 (βARK1), for which the “agonist-promoted phosphorylation relative to wild-type” value is recorded as “the Del301-303 receptor displayed -56% of wild-type phosphorylation” and the “basal phosphorylation of the receptor” value is given as “Basal phosphorylation was equivalent between the two receptors”.
